Results published in the supplement of paper PMC9112550, “Optimization of the antimicrobial peptide Bac7 by deep mutational scanning” (BMC Biology, 2022).

Test system: Escherichia coli TOP10
Assay: shrunken log2 fold change of peptide-encoding DNA abundance (4.5 h post-induction vs induction); higher = less antimicrobial activity (less host growth inhibition)
Settings: time post-induction: 4.5 h; library: site-saturation at positions 5, 18, 19, 20
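Also: peptides expressed intracellularly from a pBAD plasmid library in pooled LB shake-flask culture, induced with 0.3% L-arabinose, DNA abundance read by NGS, three biological replicates, DESeq2 with apeglm shrinkage.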

Row | Sequence | shrunken log2 fold change
1 | RRIRSRPPRLPRPRPRPADMPRP | 0.0296
2 | RRIRERPPRLPRPRPRPMFNPRP | -0.607
3 | RRIRTRPPRLPRPRPRPTNVPRP | 0.118
4 | RRIRQRPPRLPRPRPRPPGGPRP | 0.448
5 | RRIRMRPPRLPRPRPRPMGIPRP | -0.0393
6 | RRIRMRPPRLPRPRPRPCSAPRP | 1.24
7 | RRIRSRPPRLPRPRPRPIQAPRP | -0.0793
8 | RRIRKRPPRLPRPRPRPSEWPRP | 0.212
9 | RRIRGRPPRLPRPRPRPGSDPRP | 1.06
10 | RRIRARPPRLPRPRPRPSSAPRP | 1.29
11 | RRIRMRPPRLPRPRPRPSCQPRP | 0.166
12 | RRIRHRPPRLPRPRPRPQDDPRP | 0.0649
13 | RRIRERPPRLPRPRPRPSMLPRP | -0.938
14 | RRIRERPPRLPRPRPRPQDKPRP | -0.0918
15 | RRIRRRPPRLPRPRPRPQCYPRP | -0.136
16 | RRIRRRPPRLPRPRPRPPTNPRP | 0.643
17 | RRIRLRPPRLPRPRPRPKGVPRP | 0.0368
18 | RRIRYRPPRLPRPRPRPVVSPRP | -0.595
19 | RRIRHRPPRLPRPRPRPTPHPRP | 0.281
20 | RRIRKRPPRLPRPRPRPHWLPRP | 0.148
21 | RRIRERPPRLPRPRPRPFDWPRP | 0.0619
22 | RRIRCRPPRLPRPRPRPYAPPRP | -0.412
23 | RRIRKRPPRLPRPRPRPMRAPRP | 1.23
24 | RRIRSRPPRLPRPRPRPHDHPRP | -0.23
25 | RRIRSRPPRLPRPRPRPKCMPRP | -0.218

Row | Sequence | shrunken log2 fold change
26 | RRIRKRPPRLPRPRPRPKQPPRP | -0.0354
27 | RRIRVRPPRLPRPRPRPTETPRP | 0.0324
28 | RRIRTRPPRLPRPRPRPVRSPRP | 0.641
29 | RRIRWRPPRLPRPRPRPQAAPRP | 0.702
30 | RRIRSRPPRLPRPRPRPKWMPRP | 0.269
31 | RRIRLRPPRLPRPRPRPQNGPRP | -0.146
32 | RRIRVRPPRLPRPRPRPYVYPRP | -0.0156
33 | RRIRMRPPRLPRPRPRPELPPRP | 2.29
34 | RRIRHRPPRLPRPRPRPWMTPRP | -0.225
35 | RRIRNRPPRLPRPRPRPETTPRP | 0.0795
36 | RRIRFRPPRLPRPRPRPEQNPRP | 0.264
37 | RRIRYRPPRLPRPRPRPKVEPRP | -0.157
38 | RRIRARPPRLPRPRPRPACLPRP | 0.347
39 | RRIRIRPPRLPRPRPRPGHRPRP | 0.0543
40 | RRIRVRPPRLPRPRPRPDYRPRP | -0.00433
41 | RRIRPRPPRLPRPRPRPDDWPRP | 0.247
42 | RRIRARPPRLPRPRPRPMESPRP | 0.0501
43 | RRIRLRPPRLPRPRPRPQCEPRP | -0.153
44 | RRIRWRPPRLPRPRPRPRTMPRP | 0.205
45 | RRIRIRPPRLPRPRPRPNRDPRP | -0.0377
46 | RRIRGRPPRLPRPRPRPRYTPRP | 0.178
47 | RRIRNRPPRLPRPRPRPVGGPRP | 0.279
48 | RRIRMRPPRLPRPRPRPCHFPRP | -0.0459
49 | RRIRNRPPRLPRPRPRPNNEPRP | -0.208
50 | RRIRIRPPRLPRPRPRPELNPRP | 0.12

Row | Sequence | shrunken log2 fold change
51 | RRIRFRPPRLPRPRPRPRNNPRP | -0.381
52 | RRIRVRPPRLPRPRPRPIDIPRP | -0.11
53 | RRIRQRPPRLPRPRPRPEAIPRP | -0.0935
54 | RRIRWRPPRLPRPRPRPAIPPRP | 0.332
55 | RRIRWRPPRLPRPRPRPGMEPRP | 0.302
56 | RRIRERPPRLPRPRPRPEFMPRP | -0.096
57 | RRIRYRPPRLPRPRPRPTEDPRP | -0.166
58 | RRIRNRPPRLPRPRPRPRGKPRP | 0.0233
59 | RRIRERPPRLPRPRPRPRYHPRP | -0.0105
60 | RRIRKRPPRLPRPRPRPLQIPRP | 0.0389
61 | RRIRCRPPRLPRPRPRPPYCPRP | -0.365
62 | RRIRRRPPRLPRPRPRPQKCPRP | -0.288
63 | RRIRGRPPRLPRPRPRPLSIPRP | 0.363
64 | RRIRARPPRLPRPRPRPRDLPRP | -0.162
65 | RRIRERPPRLPRPRPRPNYGPRP | -0.0315
66 | RRIRKRPPRLPRPRPRPNVQPRP | 0.179
67 | RRIRIRPPRLPRPRPRPRLMPRP | -0.0272
68 | RRIRNRPPRLPRPRPRPERPPRP | 0.499
69 | RRIRGRPPRLPRPRPRPCQQPRP | 0.0696
70 | RRIRDRPPRLPRPRPRPDWPPRP | -0.0123
71 | RRIRQRPPRLPRPRPRPLRIPRP | 0.116
72 | RRIRNRPPRLPRPRPRPDTRPRP | -0.111
73 | RRIRMRPPRLPRPRPRPQCAPRP | 0.645
74 | RRIRPRPPRLPRPRPRPCMYPRP | -0.226
75 | RRIRERPPRLPRPRPRPTRMPRP | 0.084

Row | Sequence | shrunken log2 fold change
76 | RRIRARPPRLPRPRPRPYLHPRP | -1.18
77 | RRIRWRPPRLPRPRPRPMDDPRP | -0.172
78 | RRIRTRPPRLPRPRPRPQERPRP | 0.00298
79 | RRIRGRPPRLPRPRPRPNAFPRP | 0.665
80 | RRIRHRPPRLPRPRPRPCQFPRP | -0.0209
81 | RRIRTRPPRLPRPRPRPFVNPRP | -0.223
82 | RRIRQRPPRLPRPRPRPHMGPRP | -0.512
83 | RRIRLRPPRLPRPRPRPCQDPRP | 0.0219
84 | RRIRTRPPRLPRPRPRPAWQPRP | -0.0092
85 | RRIRQRPPRLPRPRPRPPFKPRP | -0.0455
86 | RRIRLRPPRLPRPRPRPFYVPRP | -0.5
87 | RRIRVRPPRLPRPRPRPDIDPRP | -0.205
88 | RRIRWRPPRLPRPRPRPEPCPRP | 0.157
89 | RRIRLRPPRLPRPRPRPIPYPRP | -0.401
90 | RRIRERPPRLPRPRPRPDWTPRP | 0.0763
91 | RRIRDRPPRLPRPRPRPNKRPRP | -0.14
92 | RRIRMRPPRLPRPRPRPYCMPRP | -0.53
93 | RRIRVRPPRLPRPRPRPYKMPRP | -0.428
94 | RRIRWRPPRLPRPRPRPHIRPRP | 0.00375
95 | RRIRERPPRLPRPRPRPAHKPRP | -0.154
96 | RRIRSRPPRLPRPRPRPWMFPRP | -0.0604
97 | RRIRYRPPRLPRPRPRPQTQPRP | -0.275
98 | RRIRDRPPRLPRPRPRPCWCPRP | -0.00088
99 | RRIRARPPRLPRPRPRPACMPRP | 0.313
100 | RRIRFRPPRLPRPRPRPGKYPRP | -0.586

Row | Sequence | shrunken log2 fold change
101 | RRIRLRPPRLPRPRPRPDGEPRP | -0.00819
102 | RRIRCRPPRLPRPRPRPFGYPRP | -0.174
103 | RRIRLRPPRLPRPRPRPAGKPRP | -0.132
104 | RRIRCRPPRLPRPRPRPHPNPRP | -0.186
105 | RRIRTRPPRLPRPRPRPVNQPRP | 0.0163
106 | RRIRDRPPRLPRPRPRPLKMPRP | 0.122
107 | RRIRHRPPRLPRPRPRPGCGPRP | 0.417
108 | RRIRERPPRLPRPRPRPFIDPRP | -0.288
109 | RRIRPRPPRLPRPRPRPATDPRP | 0.00951
110 | RRIRFRPPRLPRPRPRPTCTPRP | -0.0787
111 | RRIRYRPPRLPRPRPRPNYNPRP | -1.43
112 | RRIRKRPPRLPRPRPRPSLDPRP | 0.183
113 | RRIRFRPPRLPRPRPRPYYMPRP | -0.505
114 | RRIRGRPPRLPRPRPRPLKTPRP | 0.58
115 | RRIRLRPPRLPRPRPRPKTNPRP | -0.0556
116 | RRIRCRPPRLPRPRPRPKWQPRP | 0.0444
117 | RRIRDRPPRLPRPRPRPGMNPRP | 0.164
118 | RRIRIRPPRLPRPRPRPMTMPRP | -0.01
119 | RRIRHRPPRLPRPRPRPFVMPRP | -0.281
120 | RRIRPRPPRLPRPRPRPHYRPRP | -0.112
121 | RRIRIRPPRLPRPRPRPLKNPRP | -0.202
122 | RRIRVRPPRLPRPRPRPYALPRP | -0.848
123 | RRIRYRPPRLPRPRPRPLGHPRP | 0.0209
124 | RRIRNRPPRLPRPRPRPLSMPRP | -0.012
125 | RRIRMRPPRLPRPRPRPFQLPRP | 0.118

Row | Sequence | shrunken log2 fold change
126 | RRIRARPPRLPRPRPRPMGWPRP | 0.468
127 | RRIRTRPPRLPRPRPRPNMIPRP | -0.277
128 | RRIRWRPPRLPRPRPRPNEHPRP | -0.113
129 | RRIRDRPPRLPRPRPRPHIIPRP | -1.27
130 | RRIRRRPPRLPRPRPRPHCMPRP | -0.329
131 | RRIRVRPPRLPRPRPRPMSVPRP | 0.0581
132 | RRIRFRPPRLPRPRPRPYKQPRP | -0.83
133 | RRIRLRPPRLPRPRPRPFEAPRP | -0.256
134 | RRIRKRPPRLPRPRPRPSIRPRP | -0.375
135 | RRIRGRPPRLPRPRPRPYQWPRP | 0.0268
136 | RRIRERPPRLPRPRPRPHWVPRP | 0.172
137 | RRIRCRPPRLPRPRPRPRTAPRP | 0.304
138 | RRIRERPPRLPRPRPRPRLVPRP | -0.0143
139 | RRIRCRPPRLPRPRPRPPQKPRP | 0.627
140 | RRIRMRPPRLPRPRPRPALCPRP | 0.221
141 | RRIRNRPPRLPRPRPRPFNNPRP | -0.193
142 | RRIRRRPPRLPRPRPRPMTHPRP | -0.17
143 | RRIRPRPPRLPRPRPRPLRLPRP | 0.2
144 | RRIRPRPPRLPRPRPRPQNVPRP | -0.212
145 | RRIRKRPPRLPRPRPRPHMRPRP | 0.0568
146 | RRIRSRPPRLPRPRPRPANSPRP | -0.564
147 | RRIRTRPPRLPRPRPRPDWPPRP | 0.135
148 | RRIRERPPRLPRPRPRPMFMPRP | -0.468
149 | RRIRQRPPRLPRPRPRPANLPRP | 0.164
150 | RRIRPRPPRLPRPRPRPMVSPRP | -0.0725
